T1: bacterial-expressed 3'Flag-Acrp30 (full length) (murine, UniProt Q60994 18-247)
T1 construct: The bacterial construct is not described; also called Full Length Acrp; bacterial expressed Flag-tagged full-length
T1 sequence: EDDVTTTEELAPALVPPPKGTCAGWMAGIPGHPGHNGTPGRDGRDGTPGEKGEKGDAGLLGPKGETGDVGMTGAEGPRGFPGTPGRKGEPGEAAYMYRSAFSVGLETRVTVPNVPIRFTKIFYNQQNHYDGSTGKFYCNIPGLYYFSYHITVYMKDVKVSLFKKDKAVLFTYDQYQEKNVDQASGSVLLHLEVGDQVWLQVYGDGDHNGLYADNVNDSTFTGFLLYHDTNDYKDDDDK

B1: murine T-cadherin (full-length), over-expressed on cells (receptor)
chain: SIVVSPILIPENQRQPFPRDVGKVVDSDRPEGSKFRLTGKGVDQDPKGTFRINENTGSVSVTRTLDRETIATYQLYVETTDASGKTLEGPVPLEVIVIDQNDNRPIFREGPYIGHVMEGSPTGTTVMRMTAFDADDPATDNALWRYNIRQQTPDKPSPNMFYIDPEKGDIVTVVSPALLDRETLENPKYELIIEAQDMAGLDVGLTGTATATIVIDDKNDHSPKFTKKEFQARVEEGAVGVIVNLTVEDKDDPTTGAWRAAYTIINGNPGQSFEIHTNPQTNEGMLSVVKPLDYEISAFHTLLIKVENEDPLVPDVSYGPSSTATVHITVLDVNEGPVFYPDPMMVTKQENISVGSVLLTVNATDPDSLQHQTIRYSIYKDPAGWLSINPINGTVDTTAVLDRESPFVHNSVYTALFLAIDSGNPPATGTGTLLITLEDINDNAPVIYPTVAEVCDDARNLSVVILGASDKDLHPNTDPFKFEIHKQTVPDKVWKISKINNTHALVSLLQNLNKANYNLPIMVTDSGKPPMTNITDLKVQVCSCKNSKVDCNGAG
modifications: GPI anchor at the C-terminus (said of T-cadherin in general in the background)
notes: Expressed from the full-length cDNA in CHO, CHO-ER and Ba/F3 cells; also called pCDNA-Tcad; pBI-GFP-Tcad

Legend:
[1] = target: T1, bacterial-expressed 3'Flag-Acrp30 (full …); assay: cell ELISA on CHO-T-cadherin cells, anti-Flag M2 detection
Method: (§1) CHO-ER cell lines infected with the bicistronic retroviral construct pBI-GFP-Tcad (referred to as CHO-T-cadherin) and control cells infected with pBI-GFP (referred to as CHO-GFP) were each grown in 96 well plates. One day after plating (1.5×10⁴/well), the cells were incubated in serum-free media for one hour, placed at 4° C. for thirty minutes, and blocked in PBS++ containing 4% dried milk for thirty minutes. Bacterial expressed Flag-tagged globular-Acrp30 bacterial expressed Flag-tagged full-length, or purified trimeric or hexameric and HMW 5′Flag-Acrp30 produced in HEK cells were incubated with the cells for one hour in blocking buffer at the indicated concentrations. The HEK expressed polypeptides were produced and purified by ammonium sulfate precipitation and anion-exchange chromatography. Pools containing the trimeric or a combination of hexamer and HMW 5′Flag-Acrp30 were identified by native gel electrophoresis and immunoblotting with a Flag antibody. The purity of these preparations was judged to be approximately 50% by Coomassie PAGE analysis. Protein concentration was determined by BCA assay (Pierce). The concentration of purified bacterial expressed proteins was determined by the absorbance at 280 nm and the calculated extinction coefficient derived from the primary amino acid sequence (Protean; DNAStar). […] The absorbance at 450 nm was measured with a plate reader.

[2] = target: B1; assay: cell ELISA on CHO-T-cadherin cells, anti-Flag M2 detection; concentration as trimer equivalents
Method: as §1

| binding result [1] | EC50 [2] | Binder |
| --- | --- | --- |
| no binding | – | B1 |
| – | 25 to 50 nM | HEK produced hexameric and high-molecular weight 5'FlagAcrp30 (ligand, Pool of hexamers (6 chains) and HMW species (more than 6 chains), about 50% pure, made by ammonium sulfate precipitation and anion exchange; also called HEX & HMW; hexameric and HMW 5'Flag-Acrp30) DYKDDDDKEDDVTTTEELAPALVPPPKGTCAGWMAGIPGHPGHNGTPGRDGRDGTPGEKGEKGDAGLLGPKGETGDVGMTGAEGPRGFPGTPGRKGEPGEAAYMYRSAFSVGLETRVTVPNVPIRFTKIFYNQQNHYDGSTGKFYCNIPGLYYFSYHITVYMKDVKVSLFKKDKAVLFTYDQYQEKNVDQASGSVLLHLEVGDQVWLQVYGDGDHNGLYADNVNDSTFTGFLLYHDTN |
